Data reported in patent US20040029228A1.
Each block holds one substance with its values, some of them ahead of it.

Columns and labels:
Experiment in all cases: cell-based or functional assay
[1] = target: T1, human zcytor19 (Zyctor19) cytokine receptor (human)
T1 sequence (Q8IU57 1-520, looked up): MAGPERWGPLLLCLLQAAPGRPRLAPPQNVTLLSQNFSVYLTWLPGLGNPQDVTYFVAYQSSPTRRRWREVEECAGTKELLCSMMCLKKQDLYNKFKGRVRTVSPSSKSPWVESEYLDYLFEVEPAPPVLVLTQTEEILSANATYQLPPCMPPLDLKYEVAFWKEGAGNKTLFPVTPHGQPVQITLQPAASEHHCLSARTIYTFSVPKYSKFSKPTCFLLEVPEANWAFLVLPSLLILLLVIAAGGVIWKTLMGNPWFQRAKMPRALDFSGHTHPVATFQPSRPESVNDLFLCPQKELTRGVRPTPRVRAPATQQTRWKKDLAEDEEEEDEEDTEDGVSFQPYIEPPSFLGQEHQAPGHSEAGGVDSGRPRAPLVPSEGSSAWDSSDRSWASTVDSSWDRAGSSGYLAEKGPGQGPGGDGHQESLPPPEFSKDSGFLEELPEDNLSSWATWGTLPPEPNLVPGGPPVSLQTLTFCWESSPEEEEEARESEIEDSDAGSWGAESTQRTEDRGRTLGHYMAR

[2] = target: human CRF2-4 (IL10Rb) (human)
Sequence of human CRF2-4 (IL10Rb) (human) (Q08334 whole entry): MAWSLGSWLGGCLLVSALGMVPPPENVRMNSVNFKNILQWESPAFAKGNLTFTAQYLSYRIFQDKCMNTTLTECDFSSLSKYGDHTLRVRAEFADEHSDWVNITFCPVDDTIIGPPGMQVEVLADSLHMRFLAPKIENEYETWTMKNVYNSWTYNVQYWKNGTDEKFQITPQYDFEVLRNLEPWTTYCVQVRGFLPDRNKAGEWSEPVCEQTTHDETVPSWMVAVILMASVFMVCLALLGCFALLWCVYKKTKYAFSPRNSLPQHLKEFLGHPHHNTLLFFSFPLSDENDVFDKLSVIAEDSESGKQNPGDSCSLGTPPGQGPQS

[3] = target: zcytoR19 and IL10Rb (CRF2-4) co-expressed on cells (heterodimeric receptor) (human)

Sequence of zcyto21 (ligand) (Q8IU54 20-200): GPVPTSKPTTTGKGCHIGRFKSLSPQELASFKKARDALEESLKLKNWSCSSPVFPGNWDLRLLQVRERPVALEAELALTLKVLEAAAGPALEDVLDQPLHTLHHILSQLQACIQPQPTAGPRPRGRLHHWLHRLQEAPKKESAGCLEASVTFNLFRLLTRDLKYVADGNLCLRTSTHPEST

- ISRE-luciferase fold induction, 293 cells transfected with ISRE-Luc./Zcytor19, HuIL10 100 ng/ml (fold induction) [1]: 0.5
Substance: huIL10 (from UniProt P22301 19-178) (ligand)

- ISRE-luciferase fold induction, 293 cells transfected with ISRE-Luc./Zcytor19, Zcyto10 125 ng/ml (fold induction) [1]: 1
Substance: zcyto10 (from UniProt Q9NYY1 25-176) (ligand)

- ISRE-luciferase fold induction, wild-type 293 cells, Zcyto20 0.01 ng/ml (fold induction) [2]: 1
- ISRE-luciferase fold induction, wild-type 293 cells, Zcyto20 0.01 ng/ml + IL10Rb neutralizing Antibody (fold induction) [2]: 0.8
- ISRE-luciferase fold induction, wild-type 293 cells, Zcyto20 0.1 ng/ml (fold induction) [2]: 1
- ISRE-luciferase fold induction, wild-type 293 cells, Zcyto20 0.1 ng/ml + IL10Rb neutralizing Antibody (fold induction) [2]: 1
- ISRE-luciferase fold induction, wild-type 293 cells, Zcyto20 1 ng/ml (fold induction) [2]: 1
- ISRE-luciferase fold induction, wild-type 293 cells, Zcyto20 1 ng/ml + IL10Rb neutralizing Antibody (fold induction) [2]: 0.9
- ISRE-luciferase fold induction, wild-type 293 cells, Zcyto20 10 ng/ml (fold induction) [2]: 4
- ISRE-luciferase fold induction, wild-type 293 cells, Zcyto20 10 ng/ml + IL10Rb neutralizing Antibody (fold induction) [2]: 0.9
- ISRE-luciferase fold induction, wild-type 293 cells, Zcyto20 100 ng/ml (fold induction) [2]: 8.4
- ISRE-luciferase fold induction, wild-type 293 cells, Zcyto20 100 ng/ml + IL10Rb neutralizing Antibody (fold induction) [2]: 0.8
- ISRE-luciferase fold induction, zcytoR19-overexpressing 293 cells, Zcyto20 0.01 ng/ml (fold induction) [2]: 1.1
- ISRE-luciferase fold induction, zcytoR19-overexpressing 293 cells, Zcyto20 0.01 ng/ml + IL10Rb neutralizing Antibody (fold induction) [2]: 1.2
- ISRE-luciferase fold induction, zcytoR19-overexpressing 293 cells, Zcyto20 0.1 ng/ml (fold induction) [2]: 6
- ISRE-luciferase fold induction, zcytoR19-overexpressing 293 cells, Zcyto20 0.1 ng/ml + IL10Rb neutralizing Antibody (fold induction) [2]: 1.1
- ISRE-luciferase fold induction, zcytoR19-overexpressing 293 cells, Zcyto20 1 ng/ml (fold induction) [2]: 68
- ISRE-luciferase fold induction, zcytoR19-overexpressing 293 cells, Zcyto20 1 ng/ml + IL10Rb neutralizing Antibody (fold induction) [2]: 1.3
- ISRE-luciferase fold induction, zcytoR19-overexpressing 293 cells, Zcyto20 10 ng/ml (fold induction) [2]: 97
- ISRE-luciferase fold induction, zcytoR19-overexpressing 293 cells, Zcyto20 10 ng/ml + IL10Rb neutralizing Antibody (fold induction) [2]: 23
- ISRE-luciferase fold induction, zcytoR19-overexpressing 293 cells, Zcyto20 100 ng/ml (fold induction) [2]: 91
- ISRE-luciferase fold induction, zcytoR19-overexpressing 293 cells, Zcyto20 100 ng/ml + IL10Rb neutralizing Antibody (fold induction) [2]: 60
- ISRE-luciferase fold induction, BHK cells transfected with zcytoR19 and IL10Rb (CRF2-4), zcyto20 0.001 ng/ml (fold induction) [3]: 1.5
- ISRE-luciferase fold induction, BHK cells transfected with zcytoR19 and IL10Rb (CRF2-4), zcyto20 0.01 ng/ml (fold induction) [3]: 1.6
- ISRE-luciferase fold induction, BHK cells transfected with zcytoR19 and IL10Rb (CRF2-4), zcyto20 0.1 ng/ml (fold induction) [3]: 2.1
- ISRE-luciferase fold induction, BHK cells transfected with zcytoR19 and IL10Rb (CRF2-4), zcyto20 1 ng/ml (fold induction) [3]: 2.5
- ISRE-luciferase fold induction, BHK cells transfected with zcytoR19 and IL10Rb (CRF2-4), zcyto20 10 ng/ml (fold induction) [3]: 2.4
- ISRE-luciferase fold induction, BHK cells transfected with zcytoR19 and IL10Rb (CRF2-4), zcyto20 100 ng/ml (fold induction) [3]: 2.6
- ISRE-luciferase fold induction, BHK cells transfected with zcytoR19 and IL10Rb (CRF2-4), zcyto20 1000 ng/ml (fold induction) [3]: 2.1
- ISRE-luciferase fold induction, 293 cells transfected with ISRE-Luc./Zcytor19, Zcyto20 125 ng/ml (fold induction) [1]: 125
- ISRE-luciferase fold induction, BHK cells transfected with zcytoR19 alone, zcyto20 0.001 ng/ml (fold induction) [1]: 1.4
- ISRE-luciferase fold induction, BHK cells transfected with zcytoR19 alone, zcyto20 0.01 ng/ml (fold induction) [1]: 1.2
- ISRE-luciferase fold induction, BHK cells transfected with zcytoR19 alone, zcyto20 0.1 ng/ml (fold induction) [1]: 1.25
- ISRE-luciferase fold induction, BHK cells transfected with zcytoR19 alone, zcyto20 1 ng/ml (fold induction) [1]: 1.3
- ISRE-luciferase fold induction, BHK cells transfected with zcytoR19 alone, zcyto20 10 ng/ml (fold induction) [1]: 2.1
- ISRE-luciferase fold induction, BHK cells transfected with zcytoR19 alone, zcyto20 100 ng/ml (fold induction) [1]: 2.2
- ISRE-luciferase fold induction, BHK cells transfected with zcytoR19 alone, zcyto20 1000 ng/ml (fold induction) [1]: 2.25
Substance: zcyto20 (ligand)

- Optical Density (570 nm) of EMCV-infected cells, HuzcytoR19-overexpressing 293 cells, Zcyto20-CEE 0.5 ng/ml, Anti-IL10Rb 5 µg/ml [2]: 0.95 OD 570 nm
- Optical Density (570 nm) of EMCV-infected cells, HuzcytoR19-overexpressing 293 cells, Zcyto20-CEE 0.5 ng/ml, Anti-LeptinR control antibody 5 µg/ml [2]: 2.24 OD 570 nm
- Optical Density (570 nm) of EMCV-infected cells, wild-type 293 cells, Zcyto20-CEE 200 ng/ml, Anti-IL10Rb 5 µg/ml [2]: 0.94 OD 570 nm
- Optical Density (570 nm) of EMCV-infected cells, wild-type 293 cells, Zcyto20-CEE 200 ng/ml, Anti-LeptinR control antibody 5 µg/ml [2]: 1.88 OD 570 nm
Substance: zcyto20-CEE (ligand)

- ISRE-luciferase fold induction, wild-type 293 cells, Zcyto21 0.001 ng/ml (fold induction) [2]: 1.2
- ISRE-luciferase fold induction, wild-type 293 cells, Zcyto21 0.001 ng/ml + IL10Rb neutralizing Antibody (fold induction) [2]: 1.3
- ISRE-luciferase fold induction, wild-type 293 cells, Zcyto21 0.01 ng/ml (fold induction) [2]: 1.2
- ISRE-luciferase fold induction, wild-type 293 cells, Zcyto21 0.01 ng/ml + IL10Rb neutralizing Antibody (fold induction) [2]: 1.3
- ISRE-luciferase fold induction, wild-type 293 cells, Zcyto21 0.1 ng/ml (fold induction) [2]: 1.1
- ISRE-luciferase fold induction, wild-type 293 cells, Zcyto21 0.1 ng/ml + IL10Rb neutralizing Antibody (fold induction) [2]: 1.3
- ISRE-luciferase fold induction, wild-type 293 cells, Zcyto21 1 ng/ml (fold induction) [2]: 1.5
- ISRE-luciferase fold induction, wild-type 293 cells, Zcyto21 1 ng/ml + IL10Rb neutralizing Antibody (fold induction) [2]: 1.3
- ISRE-luciferase fold induction, wild-type 293 cells, Zcyto21 10 ng/ml (fold induction) [2]: 3.2
- ISRE-luciferase fold induction, wild-type 293 cells, Zcyto21 10 ng/ml + IL10Rb neutralizing Antibody (fold induction) [2]: 1.4
- ISRE-luciferase fold induction, wild-type 293 cells, Zcyto21 100 ng/ml (fold induction) [2]: 4.1
- ISRE-luciferase fold induction, wild-type 293 cells, Zcyto21 100 ng/ml + IL10Rb neutralizing Antibody (fold induction) [2]: 1.8
- ISRE-luciferase fold induction, zcytoR19-overexpressing 293 cells, Zcyto21 0.001 ng/ml (fold induction) [2]: 1.1
- ISRE-luciferase fold induction, zcytoR19-overexpressing 293 cells, Zcyto21 0.001 ng/ml + IL10Rb neutralizing Antibody (fold induction) [2]: 1
- ISRE-luciferase fold induction, zcytoR19-overexpressing 293 cells, Zcyto21 0.01 ng/ml (fold induction) [2]: 1.5
- ISRE-luciferase fold induction, zcytoR19-overexpressing 293 cells, Zcyto21 0.01 ng/ml + IL10Rb neutralizing Antibody (fold induction) [2]: 1.1
- ISRE-luciferase fold induction, zcytoR19-overexpressing 293 cells, Zcyto21 0.1 ng/ml (fold induction) [2]: 3.5
- ISRE-luciferase fold induction, zcytoR19-overexpressing 293 cells, Zcyto21 0.1 ng/ml + IL10Rb neutralizing Antibody (fold induction) [2]: 1
- ISRE-luciferase fold induction, zcytoR19-overexpressing 293 cells, Zcyto21 1 ng/ml (fold induction) [2]: 35
- ISRE-luciferase fold induction, zcytoR19-overexpressing 293 cells, Zcyto21 1 ng/ml + IL10Rb neutralizing Antibody (fold induction) [2]: 5.8
- ISRE-luciferase fold induction, zcytoR19-overexpressing 293 cells, Zcyto21 10 ng/ml (fold induction) [2]: 48
- ISRE-luciferase fold induction, zcytoR19-overexpressing 293 cells, Zcyto21 10 ng/ml + IL10Rb neutralizing Antibody (fold induction) [2]: 28
- ISRE-luciferase fold induction, zcytoR19-overexpressing 293 cells, Zcyto21 100 ng/ml (fold induction) [2]: 45
- ISRE-luciferase fold induction, zcytoR19-overexpressing 293 cells, Zcyto21 100 ng/ml + IL10Rb neutralizing Antibody (fold induction) [2]: 31
- ISRE-luciferase fold induction, BHK cells transfected with zcytoR19 and IL10Rb (CRF2-4), zcyto21 0.001 ng/ml (fold induction) [3]: 1.3
- ISRE-luciferase fold induction, BHK cells transfected with zcytoR19 and IL10Rb (CRF2-4), zcyto21 0.01 ng/ml (fold induction) [3]: 1.6
- ISRE-luciferase fold induction, BHK cells transfected with zcytoR19 and IL10Rb (CRF2-4), zcyto21 0.1 ng/ml (fold induction) [3]: 2.2
- ISRE-luciferase fold induction, BHK cells transfected with zcytoR19 and IL10Rb (CRF2-4), zcyto21 1 ng/ml (fold induction) [3]: 2.5
- ISRE-luciferase fold induction, BHK cells transfected with zcytoR19 and IL10Rb (CRF2-4), zcyto21 10 ng/ml (fold induction) [3]: 2.6
- ISRE-luciferase fold induction, BHK cells transfected with zcytoR19 and IL10Rb (CRF2-4), zcyto21 100 ng/ml (fold induction) [3]: 2.5
- ISRE-luciferase fold induction, BHK cells transfected with zcytoR19 and IL10Rb (CRF2-4), zcyto21 1000 ng/ml (fold induction) [3]: 2.2
- ISRE-luciferase fold induction, BHK cells transfected with zcytoR19 alone, zcyto21 0.001 ng/ml (fold induction) [1]: 1.3
- ISRE-luciferase fold induction, BHK cells transfected with zcytoR19 alone, zcyto21 0.01 ng/ml (fold induction) [1]: 1.4
- ISRE-luciferase fold induction, BHK cells transfected with zcytoR19 alone, zcyto21 0.1 ng/ml (fold induction) [1]: 1.4
- ISRE-luciferase fold induction, BHK cells transfected with zcytoR19 alone, zcyto21 1 ng/ml (fold induction) [1]: 2
- ISRE-luciferase fold induction, BHK cells transfected with zcytoR19 alone, zcyto21 10 ng/ml (fold induction) [1]: 2.4
- ISRE-luciferase fold induction, BHK cells transfected with zcytoR19 alone, zcyto21 100 ng/ml (fold induction) [1]: 2.6
- ISRE-luciferase fold induction, BHK cells transfected with zcytoR19 alone, zcyto21 1000 ng/ml (fold induction) [1]: 3.3
Substance: zcyto21 (ligand)
